US5876948 (The Children's Medical Center Corporation, dated 1999)
Bridge positions count the residues as written; N and C are the ends. Square brackets hold non-standard residues; d marks the D form. Ends that are not written are not given here. NMeF = CN[C@@H](Cc1ccccc1)C(=O)O; pGlu = O=C1CC[C@@H](C(=O)O)N1; Sar = CNCC(=O)O

Each binder was assayed against β-amyloid peptide β1-40 (polypeptide corresponding to the first 40 amino acids of β-amyloid) (assay: cell-based or functional assay).
For FFGLM [Sub P (7-11)], the “Therapeutic Efficacy (%)” value was 41%.
In the case of RPKPQQFFGLX (nor-leucine at position 11) [[Nle^11]-Sub P], the “Therapeutic Efficacy (%)” value is reported as 77%.
RPKPQQFFGLM-OMe [Sub P, Methyl Ester] was tested, and the “Therapeutic Efficacy (%)” value was 71%.
RPKPQQFFGLM-OH [Sub P, Free Acid] was tested, and the “Therapeutic Efficacy (%)” value was 53%.
With RPCPQCFYPLM (disulfide 3-6; ends not checked) [[Cys^3,6, Tyr^8, Pro^9]-Sub P] the “Therapeutic Efficacy (%)” value was 53%.
For [pGlu]QF[NMeF][Sar]LM (ends and bridges not checked) [[pGlu^5, Me-Phe^8, Sar^9]-Sub P (5-11)], the “Therapeutic Efficacy (%)” value was 41%.
For RPKPQQFFGLM-NH2 [Substance P], the “Therapeutic Efficacy (%)” value was 100%.
For RPKPQQF [Substance P (1-7)], the “Therapeutic Efficacy (%)” value was 82%.
In the case of QFFGLM [Sub P (6-11)], the “Therapeutic Efficacy (%)” value is reported as 65%.
